Experimental findings from patent US20030119102A1 are described below.

This assay addresses T1, rat Kv4.2 α-subunit (rat) (UniProt Q63881).
T1 sequence (looked up): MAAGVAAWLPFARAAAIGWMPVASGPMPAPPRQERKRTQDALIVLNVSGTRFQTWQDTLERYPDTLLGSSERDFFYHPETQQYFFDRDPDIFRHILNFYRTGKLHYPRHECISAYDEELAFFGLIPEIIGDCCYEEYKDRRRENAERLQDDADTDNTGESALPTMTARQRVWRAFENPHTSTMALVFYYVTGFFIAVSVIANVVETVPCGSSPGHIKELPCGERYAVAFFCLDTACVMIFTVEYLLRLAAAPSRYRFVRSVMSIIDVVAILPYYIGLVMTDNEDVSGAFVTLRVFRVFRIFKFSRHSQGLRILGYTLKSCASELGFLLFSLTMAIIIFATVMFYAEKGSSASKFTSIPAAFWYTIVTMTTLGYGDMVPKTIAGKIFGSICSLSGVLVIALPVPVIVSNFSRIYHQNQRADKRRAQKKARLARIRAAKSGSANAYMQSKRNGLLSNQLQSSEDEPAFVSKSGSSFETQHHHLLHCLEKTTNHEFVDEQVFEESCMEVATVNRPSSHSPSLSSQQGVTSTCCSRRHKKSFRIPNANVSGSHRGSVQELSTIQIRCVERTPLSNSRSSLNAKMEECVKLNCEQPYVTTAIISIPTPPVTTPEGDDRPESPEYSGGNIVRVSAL
Nature of the assay: cell-based or functional assay.

As for KChIP2ΔN2-67, the Inactivation time constant (ms, at 50 mV), CHO cells (rKv4.2 + vector: 28.2) is 110 ms; the Peak Current (nA/cell at 50 mV), CHO cells, patch clamp (rKv4.2 + vector: 0.60) was found to be 5.8 nA/cell; the Peak Current Density (pA/pF at 50 mV), CHO cells (rKv4.2 + vector: 25.5) was found to be 203 pA/pF; the Recovery from Inactivation Time constant, CHO cells (rKv4.2 + vector: 272.2) is 36.1 ms.
